Biological target: T1, LsrR (Escherichia coli DCM5 (mammary pathogenic)) (UniProt Q8XAY6)
T1 sequence: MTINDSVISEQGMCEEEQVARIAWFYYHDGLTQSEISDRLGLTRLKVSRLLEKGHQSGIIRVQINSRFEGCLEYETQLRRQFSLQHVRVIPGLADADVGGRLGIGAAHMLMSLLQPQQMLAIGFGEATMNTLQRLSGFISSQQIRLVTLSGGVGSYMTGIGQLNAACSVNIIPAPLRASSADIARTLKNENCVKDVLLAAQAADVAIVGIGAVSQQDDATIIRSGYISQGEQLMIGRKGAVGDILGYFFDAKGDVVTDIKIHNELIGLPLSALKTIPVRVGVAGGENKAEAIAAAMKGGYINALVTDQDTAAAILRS
Experiment: EMSA
Details: 5x binding buffer (4 µL) […]

For “TCCGCAAAAGTTCACGTTGGCTTTAGTTATTCGAGTTGAGAAACTCTCGAAACGGGCAGTGACTTCAAGGGTTAAAAGAGGTGCCGCTCCGTTTCTGTGAGCAATTATCAGTCAGAATGCTTGATAGGGATAATCGTTCATTGCTATTCTACCTATCGCCATGAACTATCGTGGCGATGGAGGATGGATA (double strand) [p-oxyR]”, the binding was “no binding”.

Reference: publication PMC8487509
